Values belong to the molecule of their own block, whether it stands above or below them.
Tests used:
[1] = target: Maricaulis maris bifunctional N-acetylglutamate synthase/kinase (mmNAGS/K), wild type (Maricaulis maris MCS10); assay: cross-linking; 0.15 ug protein with 0.25 ug dimethyl suberimidate in 50 ul of 200 mM triethanolamine pH 8.25, three hours at 298 K; SDS-PAGE (NuPAGE 4-12% Bis-Tris), Coomassie blue
[2] = target: Maricaulis maris bifunctional N-acetylglutamate synthase/kinase (mmNAGS/K), wild type (Maricaulis maris MCS10); assay: crystal structure; trigonal form P3(1)21 of native mmNAGS/K, 4.3 A, two subunits per asymmetric unit, molecular replacement with the A-X dimer; 23% PEG400, 100 mM Bis-Tris pH 6.5, 1 mM 5-amino-2,4,6-triiodoisophthalic acid
[3] = target: Maricaulis maris bifunctional N-acetylglutamate synthase/kinase (mmNAGS/K), wild type (Maricaulis maris MCS10); assay: crystal structure; orthorhombic form P2(1)2(1)2(1) of mmNAGS/K, four subunits per asymmetric unit; protein incubated beforehand with 25 mM CoA and 100 mM glutamate; native: 25% PEG3350, 200 mM NaCl, 100 mM Bis-Tris pH 6.5; Se-Met mutant: 25% PEG3350, 200 mM sodium malonate pH 7.0
[4] = target: Se-Met substituted mmNAGS/K triple mutant (I106M, I294M, L376M) (Maricaulis maris MCS10); assay: as above
mmNAGS/K [5] = target: T1, mmNAGS/K (Maricaulis maris, UniProt Q0ASS9); assay: NAGS assay, NAG quantified by LC-MS; assay type: biochemical; details: allosteric inhibitor of NAGS activity, not of NAGK activity; 2.5 mM AcCoA, 10 mM L-glutamate, 50 mM Tris-HCl pH 8.5; 293 K in Methods, 310 K in Figure 1 legend
T1 construct: gene Mmar10_0365; full length (AAK domain 1-290, linker Gly291, NAT domain 292-441); E. coli Rosetta 2; homotetramer
T1 sequence (Q0ASS9 1-441): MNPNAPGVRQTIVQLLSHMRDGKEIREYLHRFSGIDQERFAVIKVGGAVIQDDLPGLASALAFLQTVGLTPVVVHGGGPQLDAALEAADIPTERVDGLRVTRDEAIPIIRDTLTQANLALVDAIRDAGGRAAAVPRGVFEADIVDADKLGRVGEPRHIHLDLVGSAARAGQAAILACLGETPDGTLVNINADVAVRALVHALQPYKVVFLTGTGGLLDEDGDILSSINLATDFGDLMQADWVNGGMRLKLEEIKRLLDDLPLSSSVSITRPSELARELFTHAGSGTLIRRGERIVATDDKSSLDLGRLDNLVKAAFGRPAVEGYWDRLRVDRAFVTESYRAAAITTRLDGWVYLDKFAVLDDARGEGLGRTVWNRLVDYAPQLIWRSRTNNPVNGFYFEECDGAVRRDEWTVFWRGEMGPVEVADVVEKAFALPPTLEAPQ

mmNAGS/K [6] = target: T1, mmNAGS/K; assay: X-ray crystallography (native, […] A); assay type: binding; details: modeled in residual density at NAT domain of subunits A and Y; 100 mM glutamate before crystallization; pH 6.5
[7] = target: Se-Met substituted xcNAGS/K (hexagonal crystal form) (Xanthomonas campestris); assay: crystal structure; hexagonal form P6(2)22 of Se-Met xcNAGS/K, one subunit per asymmetric unit, molecular replacement with mmNAGS/K; tetramer made by crystallographic symmetry
[8] = target: Xanthomonas campestris bifunctional N-acetylglutamate synthase/kinase (xcNAGS/K), recombinant (Xanthomonas campestris); assay: cross-linking; 0.15 ug protein with 0.25 ug dimethyl suberimidate in 50 ul of 200 mM triethanolamine pH 8.25, three hours at 298 K; SDS-PAGE (NuPAGE 4-12% Bis-Tris), Coomassie blue

stoichiometry N [1]: 4 | stoichiometry N [2]: 4 | stoichiometry N [3]: 4
Molecule: Maricaulis maris bifunctional N-acetylglutamate synthase/kinase (mmNAGS/K), wild type (enzyme)

stoichiometry N [4]: 4
Molecule: Se-Met substituted mmNAGS/K triple mutant (I106M, I294M, L376M) (enzyme)

Molecule: N=C(N)NCCC[C@H](N)C(=O)O [L-arginine]
fold inhibition of NAGS activity at 1.0 mM (mmNAGS/K [5]): 14 fold

Molecule: N[C@@H](CCC(=O)O)C(=O)O [L-glutamate]
X-ray crystallography (native, 3.1 A) (mmNAGS/K [6]): residual electron density in subunits A and Y at this site that can be modeled as L-glutamate

Molecule: Se-Met substituted xcNAGS/K (hexagonal crystal form) (enzyme)
stoichiometry N [7]: 4

Molecule: Xanthomonas campestris bifunctional N-acetylglutamate synthase/kinase (xcNAGS/K), recombinant (enzyme)
stoichiometry N [8]: 4
